Drawing on paper PMC12447786, this text covers Kd for one substance.

The Kd is the equilibrium constant for the complex coming apart. Read a low Kd as higher affinity.

In the assay the target is Cys SARS2 Nsp1, fluorescein-labelled (SARS-CoV-2) (UniProt P0DTD1). Briefly: fluorescence polarisation. (In fluorescence polarisation assays a small probe gives low polarisation when free and higher when bound to something large.)

In turn, “40S ribosomal subunit purified from rabbit reticulocytes (complex)” registered a Kd of 27 nM.
